In paper PMC5640506 (2017) one finds Kd data, which are given here for 3 molecules.

One assay has as its target K6-linked diUb (UniProt P0CG47 1-76, K6-linked: one Ub is ubiquitinated on the side chain of K6). Description: MST.
The target in another assay is K29 diUb (Homo sapiens). The experiment in a line: MST.
Another assay addresses K63 diUb (Homo sapiens). The experiment in a line: MST.
The target in the next assay is K48 diUb (Homo sapiens). Description: MST.
In assay [1] the target is T1, K11-linked diUb (UniProt P0CG47 1-76, K11-linked: one Ub is ubiquitinated on the side chain of K11). The experiment in a line: MST.
In another assay the target is K33-linked diUb (UniProt P0CG47 1-76, K33-linked: one Ub is ubiquitinated on the side chain of K33). Description: MST.
The target in assay [2] is T1, K11-linked diUb. The experiment in a line: ITC. For orientation: In ITC the heat of successive injections is recorded.

B1: dimerized K33/K11 affimer, fluorescently labelled (designed binder)
chain: ENSLEIEELARFAVDEHNKKENALLEFVRVVKAKEQIWEMDASKETMYYLTLEAKDGGKKKLYEAKVWVKMTHWIGAMNNFKELQEFKPVENSLEIEELARFAVDEHNKKENALLEFVRVVKAKEQIWEMDASKETMYYLTLEAKDGGKKKLYEAKVWVKMTHWIGAMNNFKELQEFKPV
modifications: Alexa488-maleimide or NT-647-maleimide on a single cysteine
As for B1, the Kd (usually the constant that tells how readily two partners part at equilibrium) in the assay with K6-linked diUb turned out to be 210 µM; with K29 diUb it was 61 µM; with K63 diUb it was 83 µM; with K48 diUb, 120 µM.

B2: dimerized K6 affimer, fluorescently labelled (designed binder)
chain: ENSLEIEELARFAVDEHNKKENALLEFVRVVKAKEQSWKDDELFDTMYYLTLEAKDGGKKKLYEAKVWVKASGIVMYQMNFKELQEFKPVENSLEIEELARFAVDEHNKKENALLEFVRVVKAKEQSWKDDELFDTMYYLTLEAKDGGKKKLYEAKVWVKASGIVMYQMNFKELQEFKPV
modifications: Alexa488-maleimide or NT-647-maleimide on a single cysteine
With B2, the Kd with K29 diUb amounted to 55 µM; with K11-linked diUb [1], 49 µM; with K33-linked diUb it was 120 µM; in the assay with K63 diUb, 130 µM; with K48 diUb, 82 µM.

B3: K33 affimer (designed binder)
chain: MSAATGVRAVPGNENSLEIEELARFAVDEHNKKENALLEFVRVVKAKEQIWEMDASKETMYYLTLEAKDGGKKKLYEAKVWVKMTHWIGAMNNFKELQEFKPVGDAAAAHHHHHHG
Take B3: in the assay with K11-linked diUb [2], binding was put at a Kd of 0.007 µM.
